Test results as given in US8124835B2, “Acyl-coa-dependent diacylglycerol acyltransferas 1 (DGAT1) gene from Tropaeolum majus, protein encoded thereby and uses thereof” (National Research Council of Canada, priority 2006, dated 2012).
Positions count from the first letter of the chain named. Numbers in names are those of the source. Entries after “also recorded” stand apart in the source; their conditions may differ.

Test system: DGAT activity
Test: DGAT activity of site-directed mutagenized (SDM) TmDGAT1s expressed in yeast quadruple mutant H1246 MATα
Assay type: biochemical, Tropaeolum majus
Excerpt: FIG. 13. Expression of site-directed mutagenized (SDM) TmDGAT1 cDNAs in yeast quadruple mutant H1246 MATα. (A) The nasturtium DGAT1 cDNAs in pYES2/NT plasmid were transformed into a yeast DGAT mutant strain: H1246 MATα. The specific SDM changes were: F2R=Phe^439 to Arg (SEQ. ID. NO: 4, refer to SEQ. ID. NO: 10 for the nucleotide sequence); P2R=Pro^216 to Arg (SEQ. ID. NO: 5, refer to SEQ. ID. NO: 11 for the nucleotide sequence); Y2G_W2G=Tyr^392 to Gly+Trp^395 to Gly (SEQ. ID. NO: 9, refer to SEQ. ID. NO: 15 for the nucleotide sequence); Y2A=Tyr^392 to Ala (SEQ. ID. NO: 8, refer to SEQ. ID. NO: 14 for the nucleotide sequence); S2A=Ser^197 to Ala (SEQ. ID. NO: 6, refer to SEQ. ID. NO: 12 for the nucleotide sequence) and E2V=E^145 to Val (SEQ. ID. NO: 7, refer to SEQ. ID. NO: 13 for the nucleotide sequence). Yeast cells transformed with pYES2/NT plasmid only was used as a control. The mutant, transformed with the native TmDGAT1, was used as a positive DGAT control. Following the induction in the presence of galactose, the transformants were lysed and assayed for DGAT activity. (B) Western blot of the SDM TmDGATs using an Anti-Xpress antibody. Following a 7 h lyse, a 15,000×g protein pellet isolated and proteins separated by SDS-PAGE.
FIG. 14. SDM TmDGATs (SnRK1 and Tyr-P sites) activity utilizing ^14C labeled erucoyl-CoA or oleoyl-CoA+sn-1,2-diolein or dierucin. SDM TmDGATs were transformed into yeast DGAT mutant, H1246 MATα, following induction by galactose the yeast were assayed for DGAT activity. Activity is expressed as a percent of native TmDGAT, with native TmDGAT activity set at 100%.
The TmDGAT1 ORF (SEQ. ID. NO: 2) in pYES2.1/V5-His-TOPO plasmid was transformed into a quadruple yeast mutant H1246MATα (Sandager et al, 2002) using the S.c. EasyComp™ transformation Kit (Invitrogen). Yeast cells transformed with pYES2.1/V5-His-TOPO plasmid only were used as a control. Transformants were selected by growth on synthetic complete medium lacking uracil (SC-ura), supplemented with 2% (w/v) glucose. The colonies were transferred into liquid SC-ura with 2% (w/v) glucose and grown at 28° C. overnight. The overnight cultures were diluted to an OD of 0.4 in induction medium (SC-ura+2% Galactose+1% Raffinose), and were induced for 24-36 hours at 28° C. Cells were collected and broken using glass beads. The crude protein concentration in the lysates was normalized using the Biorad assay based on the method of (Bradford, 1976) and assayed for DGAT activity. DGAT assays were conducted at pH 7.4, with shaking at 100 rev/min in a water bath at 30° C. for 60 min. Assay mixtures (0.5 ml final volume) contained 500 μg lysate protein normalized as described above, 90 mM HEPES-NaOH, 200 μM sn-1,2 diolein or sn-1,2 dierucin (pre-purified by TLC on 10% borate silica H plates) in 0.02% Tween-20, and 18 μM 1-^14C acyl-CoA (specific activity 2 nCi/nmol) as the acyl donor. The ^14C-labelled TAGs were isolated and counted as described above for insect cell expression.
To introduce point mutations into the Tropaeolum majus DGAT1 coding region, we used a QuikChange™ site-directed mutagenesis kit (Stratagene). Primers were complementary to opposite strands of pYES2.1/V5-His TOPO yeast expression vector (Invitrogen) containing the TmDGAT1 gene. During the PCR, primers were extended with PfuTurbo DNA polymerase. This polymerase replicated both strands with high fidelity and without displacing the mutated oligonucleotide primers. The cycling parameters used for site-directed mutagenesis were as follows: initial denaturation at 95° C. for 30 s, followed by 15 cycles at 95° C. for 30 s, 55° C. for 1 min, and 68° C. for 15 min, with termination at 68° C. for 15 min. Following the PCR reaction, the product was treated with DpnI endonuclease (target sequence: 5′-Gm6ATC-3′) which is specific for methylated and hemimethylated DNA, used to digest the parental DNA template and to select for the mutated DNA.

[1] = recombinant SDM protein from yeast H1246MATα

B1: P216R (protein)
chain: MAVAESSQNTTTMSGHGDSDLNNFRRRKPSSSVIEPSSSGFTSTNGVPATGHVAENRDQDRVGAMENATGSVNLIGNGGGVVIGNEEKQVGETDIRFTYRPSFPAHRRVRESPLSSDAIFKQSHAGLFNLCIVVLIAVNSRLIIENLMKYGWLIDTGFWFSSRSLGDWSIFMCCLTLPIFPLAAFIVEKLVQRNHISELVAVLLHVIVSTAAVLYRVIVILTCDSVYMSGVVLMLFGCIMWLKLVSYAHTSSDIRTLAKSGYKGDAHPNSTIVSCSYDVSLKSLAYFMVAPTLCYQPSYPRSSCIRKGWVVRQFVKLIVFIGLMGFIIEQYINPIVRNSKHPLKGDFLYAIERVLKLSVPNLYVWLCMFYSFFHLWLNILAELLRFGDREFYKDWWNAKTVAEYWKMWNMPVHRWMVRHLYFPCLRNGIPKEGAIIIAFLVSGAFHELCIAVPCHVFKLWAFIGIMFQVPLVLITNYLQEKFSNSMVGNMIFWFIFCILGQPMCVLLYYHDLINLKEK
In the case of B1, the “DGAT1 activity compared to recombinant WT TmDGAT1 (in words)” value (recombinant SDM protein from yeast H1246MATα, listed as Proline^216 (changed to an Arg)) is reported as “total loss of DGAT activity; also recorded: abolished” and the “DGAT1 activity compared to recombinant WT TmDGAT1 (in words)” value (recombinant SDM protein from yeast H1246MATα, listed as Proline^216 with Arginine) is reported as “total loss of DGAT1 activity”.

B2: S197A: SDM TmDGAT1, Ser197 to Ala in putative SnRK1 phosphorylation motif (SEQ ID NO: 6) (protein, listed as Tropaeolum majus)
chain: B1 chain with S197A, R216P
In the case of B2, the “increase in trierucin production compared to the native DGAT1” value (erucoyl-CoA:sn-1,2-dierucin pairing of substrates) is reported as ~40% and the “increase in DGAT1 activity compared to wild type TmDGAT1” value [1] is reported as “up to 125%”.

B3: E145V: SDM TmDGAT1, Glu145 to Val in the catalytic site (SEQ ID NO: 7) (protein, listed as Tropaeolum majus)
chain: B1 chain with E145V, R216P
For B3, the “decrease in DGAT1 activity compared to wild type TmDGAT1” value [1] was 43%.

B4: Y392A (protein)
chain: B1 chain with R216P, Y392A
B4 was tested, and the “decrease in DGAT1 activity compared to wild type TmDGAT1” value [1] was 80%.

B5: Y392G + W395G (protein)
chain: B1 chain with R216P, Y392G, W395G
In the case of B5, the “DGAT1 activity compared to recombinant WT TmDGAT1 (in words)” value [1] is reported as “total loss of activity”.
